Where no end group is shown, it is not given here. The star is where a group is joined. Biotin = O=C1N[C@H]2[C@H](CS[C@H]2CCCCC(=O)*)N1
T1: Peptide A (human PAR-2), unbiotinylated (Human)
T1 construct: also called Peptide A No Biotin
T1 peptide: GTNRSSKGRSLIGKVDGT

T2: Peptide A (human PAR-2), N-terminal biotinylated (Human, N-terminal biotin via G4S linker)
T2 construct: also called Peptide A N-Term
T2 peptide: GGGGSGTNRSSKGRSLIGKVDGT

T3: Peptide B (human PAR-2), unbiotinylated (Human)
T3 construct: also called Peptide B No Biotin
T3 peptide: SLIGKVDGTSHVTG

T4: Peptide B (human PAR-2), N-terminal biotinylated (Human)
T4 construct: also called Peptide B N-Term
T4 peptide: Biotin-GGGGSSLIGKVDGTSHVTG

T5: Peptide B (human PAR-2), C-terminal biotinylated (Human, not fully specified)
T5 construct: also called Peptide B C-Term
T5 peptide: SLIGKVDGTSHVTGGGGGS-biotin

T6: Peptide C (human PAR-2), N-terminal biotinylated (Human)
T6 construct: also called Peptide C N-Term
T6 peptide: Biotin-GGGGSSLIGKV

T7: Peptide C (human PAR-2), C-terminal biotinylated (Human)
T7 construct: also called Peptide C C-Term
T7 peptide: SLIGKVGGGGS-biotin

B1: H2M588N (antibody, V domains shown)
VH: EVQLLESGGGLVQPGGSLRLSCAASGFTFSSYAMTWVRQAPGKGLYWVSAISGGRGSAYYADSVKGRFTISRDNSKNTLYLQMNSLRAEDTAVYYCAKEGDSGYDLAYWGRGTLVTVSS
VL: DIQMTQSPSSLSASVGDRVTITCRARQGISNNLAWLQQKPGKAPKSLIYAASSLQSGIPSKFSGSGSGTYFTLTISSLQPEDFATYYCQQYKSSPLTFGGGTKVEIK
notes: chimeric: human variable, mouse constant domains
B2: H2M589N (antibody, V domains shown)
VH: EVQLLESGGGLVQPGGSLRLSCATSGFTFSRYTMTWVRQAPGKGLFWVSGIGGSGGRAYYADSVKGRFTLSRDNSKNTLYLQMNSLRAEDTAVYYCAKEGDSGYDLDYWGRGTLVTVSS
VL: DIQMTQYPSSLSASVGDRVTITCRARQGISNYLAWLQQKPGKAPKSLIYAASSLQRGVPSKFSGSGSGTDFTLTISSLQPEDSATYYCQQYKISPLTFGGGTKVEIK
notes: as for B1
B3: H2M591N (antibody, V domains shown)
VH: EVQLLESGGGLVQPGGSLRLSCATSGFTFSRYTMTWVRQAPGKGLFWVSGIGGSGGRAYYADSVKGRFTLSRDNSKNTLYLQMNSLRAEDTAVYYCAKEGDSGYDLDYWGRGTLVTVSS
VL: DIQMTQYPSSLSASVGDRVTITCRARQGISNYLAWLQQKPGKAPKSLIYAASSLQRGVPSKFSGSGSGTDFTLTISSLQPEDSATYYCQQYKISPLTFGGGTKVEIK
notes: as for B1
B4: H2M618N (antibody, V domains shown)
VH: EVQLLESGGGLVQPGGSLRLSCAASGFTFRSYTMTWVRQAPGKGLDWVSGITDSGAGTYYGDSVKGRFTISRDNSKNTLYLQMNSLRAEDTAVYYCVKEGDSGYDLDYWGQGTLVTVSS
VL: DIQMTQSPSSLSASVGDRVTITCRASQGISTYLAWLQQKPGKAPKSLIYATSSLQSGVPSKFSGSRSGTDFTLTISSLQPEDFATYYCQQYKSSPLTFGGGTKVEIK
notes: as for B1

Experiments:
[1] = target: T1, Peptide A (human PAR-2), unbiotinylated; assay: peptide ELISA
Description: (§1) Anti-PAR-2 antibodies were tested for their ability to bind to the PAR-2 peptides. Various PAR-2 Peptides (Table 3) were coated onto 96-well plates at a concentration of 2 μg/ml and incubated overnight followed by blocking in a suitable blocking agent for one hour. […] Purified anti-PAR-2 antibodies were added to the plate coated with PAR-2 peptides to a final concentration ranging from 0.2 to 2.0 μg/ml and incubated for one hour at room temperature. Detection of bound antibodies was determined with Horse-Radish Peroxidase (HRP) conjugated anti-mouse or human IgG (Jackson Immuno Research Lab, West Grove, Pa.) and developed by standard colorimetric response using tetramethylbenzidine (TMB) substrate. Absorbance was read at OD₄₅₀ for 0.1 second.

[2] = target: T2, Peptide A (human PAR-2), N-terminal …; assay: peptide ELISA
Description: as §1

[3] = target: T8, Peptide A (human PAR-2), C-terminal biotinylated (Human, C-terminal biotin via G4S linker); assay: peptide ELISA
T8 construct: also called Peptide A C-Term
Description: as §1

[4] = target: T3, Peptide B (human PAR-2), unbiotinylated; assay: peptide ELISA
Description: as §1

[5] = target: T4, Peptide B (human PAR-2), N-terminal …; assay: peptide ELISA
Description: as §1

[6] = target: T5, Peptide B (human PAR-2), C-terminal …; assay: peptide ELISA
Description: as §1

[7] = target: T6, Peptide C (human PAR-2), N-terminal …; assay: peptide ELISA
Description: as §1

[8] = target: T7, Peptide C (human PAR-2), C-terminal …; assay: peptide ELISA
Description: as §1

[9] = target: T1, Peptide A (human PAR-2), unbiotinylated; assay: SPR, antibody captured
Description: (§2) Equilibrium dissociation constants (KD values) for antigen binding to selected purified PAR-2 antibodies were determined by surface kinetics using a real-time surface plasmon resonance biosensor assay. Antibody was captured on either a rabbit anti-mouse IgG polyclonal antibody (GE Healthcare, Piscataway, N.J.) surface or a goat anti-human IgG polyclonal antibody (Jackson Immuno Research Lab, West Grove, Pa.) surface created through direct amine chemical coupling to a BIACORE™ CM5 sensor chip to form a captured antibody surface. […] Antigen-antibody binding and dissociation were monitored in real time at room temperature. Kinetic analysis was performed to calculate KD and half-life of antigen/antibody complex dissociation (Table 10). For those antibodies where no T_{1/2} value is shown, steady state analysis was used to calculate the KD value. NB: no binding observed under current experimental conditions. ND: not determined.

[10] = target: T3, Peptide B (human PAR-2), unbiotinylated; assay: SPR, antibody captured
Description: as §2

full length human PAR-2 [11] = target: T9, full length human PAR-2 (human, UniProt P55085 26-397); assay: cell-based or functional assay
[12] = target: T8, Peptide A (human PAR-2), C-terminal …; assay: SPR, peptide immobilized
Description: (§3) In another series of experiments, equilibrium dissociation constants (KD values) for purified antibody binding to selected biotinylated and unbiotinylated forms of PAR-2 peptides were determined by surface kinetics using a real-time surface plasmon resonance biosensor assay. Neutravidin (Pierce, Rockford, Ill.) was covalently coupled to the surface of a Biacore™ C1 chip or CM5 chip using amine coupling chemistry. Biotinylated (N-Term or C-Term) PAR-2 peptides (Peptides A and B) were immobilized on the surface via the high affinity binding interaction between biotin and the amine coupled Neutravidin.
(§4) In a first experiment using this format, varying concentrations (ranging from 5 to 100 μg/ml) of purified antibody were injected at a rate of 50 μl/min over a surface coated with immobilized peptide at low-density (<1RU) for 300 seconds. Antibody-peptide binding and dissociation was monitored in real time 25° C.

[13] = target: T5, Peptide B (human PAR-2), C-terminal …; assay: SPR, peptide immobilized
Description: as §3, §4

full length human PAR-2 [14] = target: T9, full length human PAR-2; assay: cell ELISA, 10 ug/ml antibody
Source text: HEK293 cells were transfected with an NF-κB-luciferase-IRES-eGFP reporter plasmid. […] A clonal cell line, named D9, having low background levels of luciferase activity and high levels of eGFP when induced with IL-1β was made by a series of successive sorts of cell populations using flow cytometry. The 293/D9 cell line was then separately transfected with human PAR-2 or mouse PAR-2 to create the stable cell lines 293/D9/h PAR-2rec and 293/D9/m PAR-2rec, respectively.
Binding of anti-PAR-2 antibodies to 293/D9/hPAR-2rec cells was determined by ELISA. 293/D9 and 293/D9/hPAR-2rec cells were plated at a density of 5×10⁴ cells/well in media and incubated overnight at 37° C. and 5% CO₂. Purified antibody was added to the cells to a final concentration of 10 μg/ml and incubated at room temperature for one hour. Cells were then fixed and washed before detection of bound antibodies with HRP conjugated anti-mouse IgG and developed by standard colorimetric response using TMB substrate. Absorbance was read at OD₄₅₀ for 0.1 second.

T9 sequence (P55085 26-397 G138A limits assumed): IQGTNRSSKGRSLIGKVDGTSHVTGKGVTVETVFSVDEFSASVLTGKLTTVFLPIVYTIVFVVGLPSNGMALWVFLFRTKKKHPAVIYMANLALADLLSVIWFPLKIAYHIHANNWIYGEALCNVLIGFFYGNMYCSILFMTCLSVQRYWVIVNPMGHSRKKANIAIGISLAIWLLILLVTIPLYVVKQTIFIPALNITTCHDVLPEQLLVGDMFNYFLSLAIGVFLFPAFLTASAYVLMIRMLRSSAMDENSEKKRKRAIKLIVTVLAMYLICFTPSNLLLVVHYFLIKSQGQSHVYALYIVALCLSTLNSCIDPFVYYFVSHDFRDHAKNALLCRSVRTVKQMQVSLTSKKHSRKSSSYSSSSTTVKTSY

Binder | OD450 [1] [od] | OD450 [2] [od] | OD450 [3] [od] | OD450 [4] [od] | OD450 [5] [od] | OD450 [6] [od] | OD450 [7] [od] | OD450 [8] [od] | Kd [9] [nM] | T1/2 [9] [min] | Kd [10] [nM] | T1/2 [10] [min] | IC50, NF-kB-luciferase, 10 nM Human Trypsin 1 (full length human PAR-2 [11]) [nM] | IC50, NF-kB-luciferase, 10 nM Trypsin (full length human PAR-2 [11]) [nM] | IC50, NF-kB-luciferase, 20 nM Trypsin (full length human PAR-2 [11]) [nM] | IC50, NF-kB-luciferase, 75 nM Trypsin (full length human PAR-2 [11]) [nM] | IC50, NF-kB-luciferase, 200 nM Factor Xa (full length human PAR-2 [11]) [nM] | IC50, NF-kB-luciferase, 250 nM Trypsin (full length human PAR-2 [11]) [nM] | IC50, NF-kB-luciferase, 750 nM Lung Tryptase (full length human PAR-2 [11]) [nM] | A450 ratio (293/D9/hPAR-2rec to 293/D9 cells) (full length human PAR-2 [14]) | further results
B1 | 1 to 4 | 1 to 4 | 1 to 4 | 1 to 4 | 1 to 4 | 1 to 4 | 0 to 0.09 | 0 to 0.09 | 4.47 | 60.8 | 61.7 | 7.7 | 165 | 10.4 | 26.8 | 5.7 | 45.3 | 2.3 | 1 | 2.5 | IC50, NF-kB-luciferase, 30 nM Trypsin (full length human PAR-2 [11]): 33 nM; Kd [12]: 0.826 nM; T1/2 [12]: 169 min; Kd [13]: 1.49 nM; T1/2 [13]: 140 min
B2 | 1 to 4 | 1 to 4 | 1 to 4 | 1 to 4 | 1 to 4 | 1 to 4 | 0 to 0.09 | 0 to 0.09 | 3.75 | 51.3 | 128 | 7.3 |  |  |  | 3.7 |  | 6.3 |  | 2.03 | 
B3 | 1 to 4 | 1 to 4 | 1 to 4 | 1 to 4 | 1 to 4 | 1 to 4 | 0 to 0.09 | 0 to 0.09 | 4.22 | 42.7 | 151 | 8.1 | 150 | 24.2 | 122 |  | 51.5 | 4.5 | 88.1 | 2.25 | Kd [12]: 0.545 nM; T1/2 [12]: 209 min; Kd [13]: 1.82 nM; T1/2 [13]: 94 min
B4 | 1 to 4 | 1 to 4 | 1 to 4 | 1 to 4 | 1 to 4 | 1 to 4 | 0 to 0.09 | 0 to 0.09 | 9.62 | 6.7 | 126 | 3.5 | 154 | 12.4 | 70 | 7.8 | 54.2 | 6.6 | 7 | 2.44 | Kd [12]: 1.8 nM; T1/2 [12]: 79 min; Kd [13]: 2.32 nM; T1/2 [13]: 60 min
